ELISA A值 fold over negative control and ELISA A值 fold of induced over uninduced strain data for four molecules are collected here from CN101538329A.

In test [1] the target is β-淀粉样多肽 Aβ1-42 (beta-amyloid peptide, purified) (human) (UniProt P05067). Briefly: repeated phage ELISA on coated Aβ, OD490, against negative control. (In general: An ELISA detects its analyte on a solid surface through an enzyme-linked reagent.)
The target is the same in test [2]. Briefly: phage ELISA on coated Aβ, OD490, against negative control (2% MPBS).
Test [3] shares this target. Briefly: ELISA on coated Aβ, culture supernatant fraction; induced against uninduced strain.
Test [4] has the same target. In words: ELISA of soluble scFv fractions on coated Aβ, anti-c-myc detection; induced against uninduced strain.
For test [5] the target is unchanged. In words: ELISA on coated Aβ, whole-cell protein fraction; induced against uninduced strain.

UniProt P05067, sequence (P05067 672-713 limits assumed): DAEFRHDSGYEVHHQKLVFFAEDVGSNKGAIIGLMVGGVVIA

B1: A10 单克隆噬菌体抗体 (phage-displayed human anti-Aβ scFv, clone A10) (scFv, part only; not given: linker, tag and phage fusion, not shown: small tags and cut ends; large carriers)
scFv (part 1 of 2), part: EVQLVQSGAEVKRPGSSVNVSCKASGGTLSNYGLSWVRQAPGQGLEWMGGIIPSFGPANYAQIFQGRVTITADESTNTAYMELRSLTSDDTAVYYCAREGGVGVATTYWLDPWGQGTTVTVSS
scFv (part 2 of 2), part: HFMLTQPHSVSESPGKTVTISCTRSSGSIASTYVHWYQQRPGTSPTTVIYEDNRRHSRVPDRFSGSIDSSSNSASLTISGLKTEDEGDYYCQSYDSTNAWVFGGGTKVTVLG
B1: the ELISA A值 fold over negative control is more than 5 fold in test [1] and 2 fold in test [2].

B2: F2 单克隆噬菌体抗体 (phage-displayed human anti-Aβ scFv, clone F2) (scFv, part only; not given: linker, tag and phage fusion, not shown: small tags and cut ends; large carriers)
scFv (part 1 of 2), part: EVQLVQSGAEVKRPGSSVNVSCKASGGTLSNYGLSWVRQAPGQGLEWMGGIIPSFGPANYAQIFQGRVTITADESTNTAYMELRSLTSDDTAVYYCAREGGVGVATTYWLDPWGQGTTVTVSS
scFv (part 2 of 2), part: HFMLTQPHSVSESPGKTVTISCTRSSGSIASTYVHWYQQRPGTSPTTVIYEDNRRHSRVPDRFSGSIDSSSNSASLTISGLKTEDEGDYYCQSYDSTNAWVFGGGTKVTVLG
Consider B2, for which the ELISA A值 fold over negative control in test [1] was more than 5 fold; in test [2], more than 2 fold.

B3: A10 可溶性抗Aβ scFv (soluble scFv of clone A10 expressed in E. coli HB2151) (scFv, V domains shown, not shown: small tags and cut ends)
VH: EVQLVQSGAEVKRPGSSVNVSCKASGGTLSNYGLSWVRQAPGQGLEWMGGIIPSFGPANYAQIFQGRVTITADESTNTAYMELRSLTSDDTAVYYCAREGGVGVATTYWLDPWGQGTTVTVSS
VL: HFMLTQPHSVSESPGKTVTISCTRSSGSIASTYVHWYQQRPGTSPTTVIYEDNRRHSRVPDRFSGSIDSSSNSASLTISGLKTEDEGDYYCQSYDSTNAWVFGGGTKVTVLG
Turning to B3, the results for the ELISA A值 fold of induced over uninduced strain in test [3], in test [4] and in test [5] were more than 5 fold, more than 2 fold and more than 5 fold, respectively.

B4: F2 可溶性抗Aβ scFv (soluble scFv of clone F2 expressed in E. coli HB2151) (scFv, V domains shown, not shown: small tags and cut ends)
VH: EVQLVQSGAEVKRPGSSVNVSCKASGGTLSNYGLSWVRQAPGQGLEWMGGIIPSFGPANYAQIFQGRVTITADESTNTAYMELRSLTSDDTAVYYCAREGGVGVATTYWLDPWGQGTTVTVSS
VL: HFMLTQPHSVSESPGKTVTISCTRSSGSIASTYVHWYQQRPGTSPTTVIYEDNRRHSRVPDRFSGSIDSSSNSASLTISGLKTEDEGDYYCQSYDSTNAWVFGGGTKVTVLG
B4: the ELISA A值 fold of induced over uninduced strain is more than 5 fold in test [3], more than 2 fold in test [4] and more than 5 fold in test [5].
